This note sets out measurements from US20250270315A1 (ELPISCIENCE SUZHOU BIOPHARMA, published 2025).

Test [1] addresses T1, human SIRPα v1 ECD recombinant protein (tag not given) (human, UniProt P78324 31-373).
T1 construct: extracellular domain; also called biotin labeled soluble human SIRPα v1 ECD recombinant protein; ELISA microplate coated human SIRPα v1 ECD
As to the kind of experiment: competitive ELISA, mFc-CD47 ECD on coated SIRPα v1 ECD. The procedure:
(§1) Competitive ELISA assay was used to determine whether the purified chimeric antibodies can block CD47 and SIRPα interaction. Briefly, antibody and mFc tagged human CD47 ECD recombinant protein were co-incubated with ELISA microplate coated human SIRPα v1 ECD (FIGS. 6A and 6B) or human SIRPα v2 ECD (FIGS. 7A and 7B) recombinant protein. After washing, HRP labeled anti-mouse Fc 2nd antibody (Sigma) was added and incubated at 37° C. for 1 hour. Then, 100 μl/well of TMB solution (Biotechnology) was added. After incubation for 15 minutes at room temperature, the reaction was stopped by the addition of 50 μl of 1N HCl. OD 450 nm was read. Blocking ratio was determined by blockade of human CD47 ECD recombinant protein binding to ELISA microplate coated human SIRPα ECD recombinant protein. Other than 005, all antibodies as tested can block interaction between human CD47 and different human SIRPα variants.
On the technique in general: In an ELISA, binding on a coated surface is turned into a signal by an enzyme label.

For test [2], the target named is T2, human SIRPβ ECD recombinant protein (6×His tagged) (human, UniProt O00241 30-371).
T2 construct: extracellular domain; Bought from Sino Biological; also called hSIRPβ ECD; not shown: 6×His tag
Put plainly: ELISA, hSIRPβ ECD. The text has this: (§2) Binding activity of the purified chimeric antibodies against SIRPβ and SIRPBI was detected by ELISA assay using recombinant proteins of human SIRPβ ECD (FIGS. 3A and 3B), human SIRPBI ECD (FIGS. 3D and 3E) and FACS assay using CHOK 1 cells stably expressing human SIRPB (FIG. 3C).

The target of test [3] is T3, human SIRPβL ECD recombinant protein (6×His tagged) (human, UniProt Q5TFQ8 30-371).
T3 construct: given variously as SIRPBL, SIRPBI and SIRPβI; Bought from Biointron; also called human SIRPBL ECD; human SIRPBI ECD
As to the kind of experiment: ELISA, hSIRPβI ECD.
Excerpt: as §2

In test [4] the target is T4, human SIRPβ stably expressed on CHOK1 cells (human, UniProt O00241 30-398).
T4 construct: whole, on cells; also called CHOK1-human SIRPB; CHOK1-hSIRPβ
As to the kind of experiment: FACS, CHOK1-hSIRPβ cells.
Excerpt: as §2
In general terms: In flow cytometry, cells or beads pass a laser one at a time.

Test [5] has as its target T5, C57BL/6 mouse SIRPα ECD recombinant protein (6×His tagged) (C57BL/6 mouse, UniProt P97797 32-373).
T5 construct: extracellular domain; Bought from Biointron; not shown: 6×His tag
T5 sequence (looked up): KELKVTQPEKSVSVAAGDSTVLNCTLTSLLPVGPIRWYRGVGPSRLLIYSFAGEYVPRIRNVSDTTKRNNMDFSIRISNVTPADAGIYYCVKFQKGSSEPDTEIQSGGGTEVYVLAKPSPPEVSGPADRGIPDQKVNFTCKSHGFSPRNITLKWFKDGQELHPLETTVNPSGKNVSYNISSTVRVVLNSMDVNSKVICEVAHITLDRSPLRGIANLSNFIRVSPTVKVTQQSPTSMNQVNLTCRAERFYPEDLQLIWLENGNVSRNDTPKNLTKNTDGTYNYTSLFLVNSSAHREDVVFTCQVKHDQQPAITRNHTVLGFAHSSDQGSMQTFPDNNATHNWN
As to the kind of experiment: ELISA, recombinant C57BL/6 mouse SIRPα ECD. From the text: Species cross reactivity of purified chimeric antibodies was detected by ELISA assay using recombinant protein of C57BL/6 mouse SIRPα ECD (FIG. 5A) and FACS assay using CHOK 1 cells stably expressing cyno SIRPα (FIGS. 5B and 5C). All antibodies as tested bind to cyno SIRPα at different levels but have no species cross reactivity against C57BL/6 mouse SIRPα.

The target in test [6] is Human SIRPα v1 (antigen of the Octet and Biacore affinity measurements) (human, UniProt P78324 31-370, limits assumed). As to the kind of experiment: BLI (Octet), 1:1 binding model. As for the experimental part: The purified chimeric antibodies were characterized for binding affinity against human SIRPα v1, human SIRPα v2 using Bio-Layer Interferometry technology (Octet system). The association and dissociation curves were fit with 1:1 binding model, and the Ka/Kd/KD values for each antibody were calculated.
In general terms: In BLI a coated tip is dipped into the sample, and binding shifts an interference pattern.

The target in test [7] is full length human SIRPα v1 with a small beta-gal fragment (ED) fused to its C-terminal, expressed in K562 … (human, UniProt P78324 31-504). Put plainly: cell-based or functional assay.
Test [8] has as its target T6, cyno SIRPγ ECD recombinant protein (cyno).
T6 construct: extracellular domain
As to the kind of experiment: ELISA, cyno SIRPγ ECD.

Test [9] concerns the target T7, mFc tagged human SIRPα v1 ECD recombinant protein (human, UniProt P78324 31-373).
T7 construct: extracellular domain; Bought from Biointron; not shown: mouse IgG Fc (mFc) tag
Put plainly: competitive ELISA binning, mFc-SIRPα v1 ECD; competitor 042c. As for the experimental part: (§3) Competitive ELISA assay was used for epitope binning of purified chimeric antibodies. Briefly excessive competitor antibody and mFc tagged human SIRPα v1 ECD recombinant protein were co-incubated with ELISA microplate coated antibody. After washing, HRP labeled anti-mouse Fc 2nd antibody (Sigma) was added and incubated at 37° C. for 1 hour. Then, 100 μl/well of TMB solution (Biotechnology) was added. After incubation for 15 minutes at room temperature, the reaction was stopped by the addition of 50 μl of 1N HCl. OD 450 nm was read. Competition ratio was calculated. The antibodies that can compete each other for binding to SIRPα may have related binding epitopes.

The target in test [10] is T7, mFc tagged human SIRPα v1 ECD …. As to the kind of experiment: competitive ELISA binning, mFc-SIRPα v1 ECD; competitor hu1H9G4. The procedure: as §3
The target is the same in test [11]. Put plainly: competitive ELISA binning, mFc-SIRPα v1 ECD; competitor 025c. As for the experimental part: as §3
For test [12], the target named is T8, full length human SIRPα v1 stably expressed on CHOK1 or 293F cells (human, UniProt P78324 31-504).
T8 construct: whole, on cells; also called CHOK1-human SIRPα v1; CHOK1-hSIRPα v1
As to the kind of experiment: FACS, CHOK1-hSIRPα v1 cells.

Test [13] has as its target T9, human SIRPα v2 ECD recombinant protein (tag not given) (human).
T9 construct: extracellular domain; also called ELISA microplate coated human SIRPα v2 ECD
As to the kind of experiment: competitive ELISA, mFc-CD47 ECD on coated SIRPα v2 ECD. As for the experimental part: as §1

For test [14], the target named is T10, human SIRPγ stably expressed on 293F cells (human, UniProt Q9P1W8 29-387).
T10 construct: whole, on cells
Put plainly: FACS, 293F-human SIRPγ cells.

In test [15] the target is T8, full length human SIRPα v1 stably …. Put plainly: FACS, 293F-hSIRPα v1 cells.

T7 sequence (P78324 31-373): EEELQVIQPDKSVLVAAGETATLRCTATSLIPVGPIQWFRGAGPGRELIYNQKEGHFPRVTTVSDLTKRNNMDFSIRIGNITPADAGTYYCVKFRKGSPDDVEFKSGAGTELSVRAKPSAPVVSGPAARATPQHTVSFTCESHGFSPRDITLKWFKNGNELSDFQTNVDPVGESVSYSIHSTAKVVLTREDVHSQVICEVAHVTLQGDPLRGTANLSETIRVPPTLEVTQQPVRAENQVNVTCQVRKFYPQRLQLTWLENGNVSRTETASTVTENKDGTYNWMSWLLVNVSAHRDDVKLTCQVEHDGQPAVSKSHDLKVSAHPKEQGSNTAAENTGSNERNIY
Chain of Human SIRPα v1 (antigen of the Octet and Biacore affinity measurements) (P78324 31-370 limits assumed): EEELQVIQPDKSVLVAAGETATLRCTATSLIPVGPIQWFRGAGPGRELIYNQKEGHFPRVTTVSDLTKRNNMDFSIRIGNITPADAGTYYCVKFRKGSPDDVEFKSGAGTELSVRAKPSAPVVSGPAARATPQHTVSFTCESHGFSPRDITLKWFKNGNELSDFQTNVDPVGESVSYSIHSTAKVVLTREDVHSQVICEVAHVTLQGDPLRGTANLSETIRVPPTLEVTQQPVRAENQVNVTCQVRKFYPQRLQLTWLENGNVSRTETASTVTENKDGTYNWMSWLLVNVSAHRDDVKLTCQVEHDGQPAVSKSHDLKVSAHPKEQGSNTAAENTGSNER
Chain of full length human SIRPα v1 with a small beta-gal fragment (ED) fused to its C-terminal, expressed in K562 … (P78324 31-504): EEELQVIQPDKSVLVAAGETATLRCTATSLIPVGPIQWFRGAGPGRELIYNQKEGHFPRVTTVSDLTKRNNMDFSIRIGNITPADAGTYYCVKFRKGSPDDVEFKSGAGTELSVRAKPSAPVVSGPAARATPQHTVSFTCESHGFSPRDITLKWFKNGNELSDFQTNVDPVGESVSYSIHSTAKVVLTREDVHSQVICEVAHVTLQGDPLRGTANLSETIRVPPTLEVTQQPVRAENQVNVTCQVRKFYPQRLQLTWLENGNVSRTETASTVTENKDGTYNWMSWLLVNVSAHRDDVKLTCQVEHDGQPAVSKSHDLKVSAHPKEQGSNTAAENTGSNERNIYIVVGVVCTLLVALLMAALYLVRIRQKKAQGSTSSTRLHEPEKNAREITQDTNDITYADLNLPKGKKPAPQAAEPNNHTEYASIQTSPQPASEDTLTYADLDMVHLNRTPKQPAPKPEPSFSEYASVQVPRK
T8 sequence (P78324 31-504): as above
T2 sequence (O00241 30-371): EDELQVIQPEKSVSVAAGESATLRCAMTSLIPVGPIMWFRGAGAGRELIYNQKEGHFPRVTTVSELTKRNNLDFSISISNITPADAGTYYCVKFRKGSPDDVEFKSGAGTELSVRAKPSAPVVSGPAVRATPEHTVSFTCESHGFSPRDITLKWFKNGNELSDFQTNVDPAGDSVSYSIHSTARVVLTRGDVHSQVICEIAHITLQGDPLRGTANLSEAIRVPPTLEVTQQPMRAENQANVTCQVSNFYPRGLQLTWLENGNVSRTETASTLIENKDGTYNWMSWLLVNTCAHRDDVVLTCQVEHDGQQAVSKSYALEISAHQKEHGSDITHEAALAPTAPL
T4 sequence (O00241 30-398): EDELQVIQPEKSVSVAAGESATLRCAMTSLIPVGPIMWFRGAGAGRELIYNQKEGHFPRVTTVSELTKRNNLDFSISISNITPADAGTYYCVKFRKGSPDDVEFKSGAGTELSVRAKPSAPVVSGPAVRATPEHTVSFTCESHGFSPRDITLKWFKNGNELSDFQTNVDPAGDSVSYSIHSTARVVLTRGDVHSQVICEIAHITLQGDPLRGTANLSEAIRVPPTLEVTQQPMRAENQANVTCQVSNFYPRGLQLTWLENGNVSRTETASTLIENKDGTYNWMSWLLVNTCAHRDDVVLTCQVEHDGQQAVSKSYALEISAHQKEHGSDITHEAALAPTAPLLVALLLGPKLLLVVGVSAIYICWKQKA
T1 sequence (P78324 31-373): as the sequence (P78324 31-373) above
T3 sequence (Q5TFQ8 30-371 limits assumed): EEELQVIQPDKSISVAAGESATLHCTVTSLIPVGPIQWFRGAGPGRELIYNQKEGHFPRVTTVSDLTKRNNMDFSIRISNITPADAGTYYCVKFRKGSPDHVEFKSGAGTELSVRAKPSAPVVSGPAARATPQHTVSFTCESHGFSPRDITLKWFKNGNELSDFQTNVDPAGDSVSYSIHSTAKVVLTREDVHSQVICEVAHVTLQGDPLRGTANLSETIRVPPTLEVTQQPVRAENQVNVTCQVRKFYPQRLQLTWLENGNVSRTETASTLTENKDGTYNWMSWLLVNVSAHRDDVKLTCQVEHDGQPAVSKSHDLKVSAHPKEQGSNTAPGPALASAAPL
T10 sequence (Q9P1W8 29-387): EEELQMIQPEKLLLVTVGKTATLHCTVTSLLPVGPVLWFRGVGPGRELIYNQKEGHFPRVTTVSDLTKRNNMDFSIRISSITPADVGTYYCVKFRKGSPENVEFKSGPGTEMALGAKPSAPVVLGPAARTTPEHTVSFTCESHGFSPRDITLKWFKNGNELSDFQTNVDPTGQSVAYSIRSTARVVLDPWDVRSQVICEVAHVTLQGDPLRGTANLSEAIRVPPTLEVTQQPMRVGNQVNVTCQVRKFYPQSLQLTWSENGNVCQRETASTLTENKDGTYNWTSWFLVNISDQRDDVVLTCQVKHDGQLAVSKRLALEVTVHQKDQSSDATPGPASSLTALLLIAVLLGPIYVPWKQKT

B1: 073c (antibody, V domains shown)
VH: QIQLVQSGPELKKPGETVKISCKASGYTFTTYGMSWVKQAPGKGLKWMVWINTYSGVPTYADDFKGRFAFSLETSASTSYLQINNLKNEDTATYFCARDPHYYGSSPAWFVYWGQGTLVTVSA
VL: DIVMTQSQKFMSTTIGDRVSITCEASQIVGIAVAWYQQKPGQSPKLLIYSASNRYTGVPDRFTGSGSGTDFTLTISNMQSEDLANYFCQQYSAYPFTFGSGTKLEVK
notes: also called chimeric antibody 073c
In general, IC50 refers to the concentration needed to halve the response being measured. The EC50 is the concentration that produces a half-maximal response. Usually Kd stands for the concentration at which binding is half-saturated. In general, koff refers to a measure of how fast the partners let go of each other. A high value points to fast dissociation. As a reminder, the kon is a measure of how fast the partners come together. The low end stands for slower complex formation, the high end for faster complex formation. As to B1, the IC50 in [1] came out at 2.74 nM; in test [13], 4.92 nM. Further, the figures for the “TOP blocking (%)” value in [1] and in test [13] were 95.1% and 82.8%, respectively. Besides, the EC50 in test [2] worked out at 2.14 nM; in [3], 0.27 nM; in test [4] it was 22.9 nM; in test [8] it was 45.5 nM; in test [12] it was 1.5 nM; in [14], 12.6 nM. For the same molecule, the figures for the “TOP OD450” value in test [2], in test [3] and in test [8] were 3.07 OD450, 2.64 OD450 and 0.92 OD450, respectively. The “TOP MFI” value in [4] amounted to 2630 MFI; in test [12], 67800 MFI; in test [14] it was 728 MFI. Moreover, in test [5], the binding result was “no binding”. The molecule also gave a Kd in test [6] of 6.07 nM. In [6], this molecule came in with a koff of 0.00303 s⁻¹. The same molecule came in with a kon in test [6] of 499000 M⁻¹ s⁻¹. In addition, the “SHP-1 recruitment blocking, IC50” value in test [7] turned out to be 5.66 nM. The “SHP-1 recruitment blocking, TOP blocking (%)” value in test [7] is 51.2%. In addition, the “% Competition” value in test [9] amounted to 93.6%; in test [10] it was 37.7%; in [11], 9.1%.

B2: 005c (antibody, V domains shown)
VH: EVKLVESGGGLVQPGGSLSLSCAASGFTFTDYYMSWVRQPPGKALEWLGFIKNEANGYTTESSASVKGRFTISRDNSQSILYLQMNALRAEDSATYYCARYDYYGSNYNWYFDAWGTGTTVTVSS
VL: DIVMTQSQKFMSPSVGDRVSITCKASQNVRTAVAWYQQKPGQSPKVLIHLASKRHTGVPDRFTGSGSGTDFTLTISNVQSEDLADYFCLQHWIHPLTFGAGTKLELK
notes: also called chimeric antibody 005c
B2 came in with an EC50 in test [15] of 3.88 nM. Further, in [7], the “SHP-1 recruitment blocking, IC50” value is 3.85 nM and the “SHP-1 recruitment blocking, TOP blocking (%)” value was determined as 76.4%.
